From paper PMC11897055

Conditions: other: succinylation at K130

superoxide dismutase 2 (SOD2): ST1326 (CPT1A inhibitor, 10 μM, 48 h)
enzymatic_activity: decreases

superoxide dismutase 2 (SOD2): CPT1A knockdown
degradation_or_half_life: no change
enzymatic_activity: decreases
localisation_or_trafficking: decreases

superoxide dismutase 2 (SOD2): K130R
enzymatic_activity: decreases
localisation_or_trafficking: decreases
